{"source": "IntAct's records for PubMed 24583011", "key": {"sv2c_rat Sv2c [1]": {"biological_target": "T1, sv2c_rat Sv2c (UniProt Q9Z2I6)", "T1 sequence": "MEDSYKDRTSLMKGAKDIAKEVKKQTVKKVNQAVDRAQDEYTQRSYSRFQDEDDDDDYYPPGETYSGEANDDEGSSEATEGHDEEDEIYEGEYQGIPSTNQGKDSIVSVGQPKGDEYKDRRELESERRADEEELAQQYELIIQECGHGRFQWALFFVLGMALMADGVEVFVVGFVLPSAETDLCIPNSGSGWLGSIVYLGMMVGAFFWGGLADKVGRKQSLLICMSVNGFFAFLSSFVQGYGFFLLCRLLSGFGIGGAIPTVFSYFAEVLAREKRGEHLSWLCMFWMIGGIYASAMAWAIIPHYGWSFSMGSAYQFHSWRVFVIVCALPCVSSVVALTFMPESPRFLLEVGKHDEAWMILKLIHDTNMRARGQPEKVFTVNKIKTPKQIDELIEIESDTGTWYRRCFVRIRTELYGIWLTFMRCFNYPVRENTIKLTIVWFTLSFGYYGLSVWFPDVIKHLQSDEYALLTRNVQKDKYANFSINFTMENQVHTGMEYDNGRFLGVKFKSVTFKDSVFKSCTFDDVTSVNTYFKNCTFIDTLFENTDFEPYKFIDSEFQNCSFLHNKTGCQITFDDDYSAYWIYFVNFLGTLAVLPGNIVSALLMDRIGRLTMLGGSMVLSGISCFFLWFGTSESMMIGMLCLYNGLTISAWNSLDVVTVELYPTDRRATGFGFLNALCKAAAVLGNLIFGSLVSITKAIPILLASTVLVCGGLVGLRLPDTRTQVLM"}, "sv2c_rat Sv2c [2]": {"biological_target": "T1, sv2c_rat Sv2c", "remark": "listed apart in the source"}, "sv2c_rat Sv2c [3]": {"biological_target": "T1, sv2c_rat Sv2c", "remark": "listed apart in the source"}, "sv2c_rat Sv2c [4]": {"biological_target": "T1, sv2c_rat Sv2c", "remark": "listed apart in the source"}, "sv2c_rat Sv2c [5]": {"biological_target": "T1, sv2c_rat Sv2c", "remark": "listed apart in the source"}, "sv2c_rat Sv2c [6]": {"biological_target": "T1, sv2c_rat Sv2c", "remark": "listed apart in the source"}, "sv2c_rat Sv2c [7]": {"biological_target": "T1, sv2c_rat Sv2c", "remark": "listed apart in the source"}, "sv2c_rat Sv2c [8]": {"biological_target": "T1, sv2c_rat Sv2c", "remark": "listed apart in the source"}, "sv2c_rat Sv2c [9]": {"biological_target": "T1, sv2c_rat Sv2c", "remark": "listed apart in the source"}, "sv2c_rat Sv2c [10]": {"biological_target": "T1, sv2c_rat Sv2c", "remark": "listed apart in the source"}}, "data": [{"substance": "Botulinum neurotoxin type A (Clostridium botulinum) (from UniProt P0DPI0) D1108R", "values": [{"measurement": "effect of a mutation on the interaction", "setting": "sv2c_rat Sv2c [1]", "result": "decreasing interaction"}]}, {"substance": "Botulinum neurotoxin type A (Clostridium botulinum) (from UniProt P0DPI0) G1292R", "values": [{"measurement": "effect of a mutation on the interaction", "setting": "sv2c_rat Sv2c [2]", "result": "decreasing interaction"}]}, {"substance": "Botulinum neurotoxin type A (Clostridium botulinum) (from UniProt P0DPI0) H1064G", "values": [{"measurement": "effect of a mutation on the interaction", "setting": "sv2c_rat Sv2c [3]", "result": "decreasing interaction"}]}, {"substance": "Botulinum neurotoxin type A (Clostridium botulinum) (from UniProt P0DPI0) K1163E", "values": [{"measurement": "effect of a mutation on the interaction", "setting": "sv2c_rat Sv2c [4]", "result": "decreasing interaction"}]}, {"substance": "Botulinum neurotoxin type A (Clostridium botulinum) (from UniProt P0DPI0) N905Y", "values": [{"measurement": "effect of a mutation on the interaction", "setting": "sv2c_rat Sv2c [5]", "result": "decreasing interaction"}]}, {"substance": "Botulinum neurotoxin type A (Clostridium botulinum) (from UniProt P0DPI0) N1188A", "values": [{"measurement": "effect of a mutation on the interaction", "setting": "sv2c_rat Sv2c [6]", "result": "decreasing interaction"}]}, {"substance": "Botulinum neurotoxin type A (Clostridium botulinum) (from UniProt P0DPI0) R1131E", "values": [{"measurement": "effect of a mutation on the interaction", "setting": "sv2c_rat Sv2c [7]", "result": "decreasing interaction"}]}, {"substance": "Botulinum neurotoxin type A (Clostridium botulinum) (from UniProt P0DPI0) R1156M", "values": [{"measurement": "effect of a mutation on the interaction", "setting": "sv2c_rat Sv2c [8]", "result": "decreasing interaction"}]}, {"substance": "Botulinum neurotoxin type A (Clostridium botulinum) (from UniProt P0DPI0) T1063P", "values": [{"measurement": "effect of a mutation on the interaction", "setting": "sv2c_rat Sv2c [9]", "result": "decreasing interaction"}]}, {"substance": "Botulinum neurotoxin type A (Clostridium botulinum) (from UniProt P0DPI0) V1287E", "values": [{"measurement": "effect of a mutation on the interaction", "setting": "sv2c_rat Sv2c [10]", "result": "decreasing interaction"}]}]}
